Source: article PMC3105425

Molecular target: truncated form of ribosomal protein L2 (E. coli) (UniProt P60422)
Experiment: ELISA

Sequence of DnaAΔ129 lacking the N-terminal 129 residues (P03004 130-467, stated change not applied): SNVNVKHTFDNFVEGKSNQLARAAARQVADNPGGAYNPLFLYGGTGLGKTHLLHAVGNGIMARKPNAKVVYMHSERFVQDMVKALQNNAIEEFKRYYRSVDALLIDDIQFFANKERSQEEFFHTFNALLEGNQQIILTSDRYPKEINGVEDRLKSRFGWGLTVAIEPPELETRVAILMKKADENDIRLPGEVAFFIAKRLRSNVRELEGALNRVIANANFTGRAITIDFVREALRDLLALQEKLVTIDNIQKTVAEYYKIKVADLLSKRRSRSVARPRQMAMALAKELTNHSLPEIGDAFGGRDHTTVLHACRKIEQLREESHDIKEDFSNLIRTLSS

“DnaAΔ129 lacking the N-terminal 129 residues (from UniProt P03004 130-467) (domain or fragment)” showed a fold reduction of the interaction against wild-type DnaA of 4 fold.
